Reference: the nanobody polyreactivity screen of Harvey et al. (2022)

Assay: yeast display, Sf9 membrane polyspecificity reagent, FACS + sequencing; frameworks hold sequencing errors
Summary of the method: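 A synthetic nanobody library was expressed on Saccharomyces cerevisiae BJ5465 by galactose induction for 36–48 hours. The library was stained for 1 hour at 4 °C with 10% biotinylated, detergent-solubilized Sf9 membrane reagent and enriched with streptavidin microbeads before FACS. Low and high (top ~1%) gates were set on anti-HA fluorescence for expression and streptavidin fluorescence for reagent binding, and each polyreactivity label reflects the gate of origin.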

Row | Sequence | polyreactivity (PSR sort gate)
1 | QVQLVESGGGLVQAGGSLRLSCAASGITLRGNAMGWYRQSPGKERELVAAIRTSGGRTYYADSVKGRFTISRDNAKNTVYLQMNSLIPEDTAVYYCAADYDSSYAYRTPYGYWGQGTQVTVSS | low polyreactivity
2 | QVQLVESGGGLVQAGGSLRLSCAASGITLRRNAMGWYRQAPGKERELVARISTTGGSTYYADSVKGRFTISRDNAKNTVYLQMNSLKPEDTAVYYCAADYVQYEFEYWGQGTQVTVSS | high polyreactivity
3 | QVQLVESGGGLVQAGGSLRLSCAASGITLSQNAMGWYRQAPGKERELVAAIDSGGVDTYYADSVKGRFTISRDNAKNTVYLQMNSLKPEDTAVYYCAVDYSYEYEYWGQGTQVTVSS | low polyreactivity
4 | QVQLVESGGGLVQAGGSLRLSCAASGITLTKYAMGWYRQAPGKERELVAAISKRGTNTYYADSVKGRFTISRDNAKNTVYLQMNSLKPEDTAVYYCNAPGHRQNGLGDYWGQGTQVTVSS | high polyreactivity
5 | QVQLVESGGGLVQAGGSLRLSCAASGITLTKYGMGWYRQAPGKERELVAAISGSGGSTYYADSVKGRFTISRDNAKNTVYLQMNSLKPEDTAVYYCAARALYPRYYYWGQGTQVTVSS | high polyreactivity
6 | QVQLVESGGGLVQAGGSLRLSCAASGITLVGNAMGWYRQAPGKERELVADINWSDDSTYYADSVKGRFTISRDNAKNTVYLQMNSLKQEDTAVYYCAADVSWRLYNRSSEYDYWGQGTQVTVSS | low polyreactivity
7 | QVQLVESGGGLVQAGGSLRLSCAASGITLVRYAMGWYRQAPGKERELVAAISSSGGSTYYADSVKGRFTISRHNAKNTVYLQMNSLKPEDTAVYYCNAYVHSRRVEFNYWGQGTQVTVSS | high polyreactivity
8 | QVQLVESGGGLVQAGGSLRLSCAASGITLVRYAMGWYRQAPGKERELVASIRGTGGSTYYADSVKGRFTISRDNAKNTVYLQMNSLKPEDTAVYYCAAGRYDYWGQGTQVTVSS | high polyreactivity
9 | QVQLVESGGGLVQAGGSLRLSCAASGITLVRYAMGWYRQAPGKERELVASITSGASTNYADSVKGRFTISRDNAKNTVYLQMNSLKPEDTAVYYCAAGPPSGGWWGGWYDYWGQGTQVTVSS | high polyreactivity
10 | QVQLVESGGGLVQAGGSLRLSCAASGITLYEYAMGWYRQAPGKERELVAAISTSGGRTRYADSVKGRFTISRDNAKNTVYLQMNSLKPEDTAVYYCAASGFVQISNPRRDYWGQGTQVTVSS | high polyreactivity
11 | QVQLVESGGGLVQAGGSLRLSCAASGITLYNYAMGWYRQAPGTERELVAAISLSGGRTYYADSVKGRFTISRDNAKNTVYLQMNSLKPEDTAVYYCAADWLNSDPYNYWGQGTQVTVSS | low polyreactivity
12 | QVQLVESGGGLVQAGGSLRLSCAASGITLYRNVMGWYRQAPGKERELVADISGRGTSTYYADSVKGRFTISRDNAKNTVYLQIHSLKPEDNAVYYCKGEVYLVVYPGLYYYDIYDYWGQGTQVTVSS | low polyreactivity
13 | QVQLVESGGGLVQAGGSLRLSCAASGITLYRYAMGWYRHAPGKERELVAAISWSGGSTYYADSVKGRFTISRDNAKNTVYLQMNSLKPEDTAVYYCAADDYKDEHDYWGQGTQVTVSS | high polyreactivity
14 | QVQLVESGGGLVQAGGSLRLSCAASGITLYYYVMGWYRQAPGKERELVAAISWNSGRTYYADSVKGRFTISRDNAKNTVYLQMNSLKPEDTAVYYCAARPPVRLTYRYSYDYWGQGTQVTVSS | high polyreactivity
15 | QVQLVESGGGLVQAGGSLRLSCAASGITPDYAMGWYRQAPGKERELVAAITWSGGRTYYADSVKGRFTISRDNAKNTVYLQMNSLKPEDTAVYYCAAEHYLGYDYWGQGTQVTVSS | low polyreactivity
16 | QVQLVESGGGLVQAGGSLRLSCAASGITSGHNAMGWYRQAPGKERELVADIRTGDSTNYADSVKGRFTISRDNAKNTVYLQMNSLKPEDTAVYYCAADSAYDVTSYGYWGQGTQVTVSS | low polyreactivity

Row | Sequence | polyreactivity (PSR sort gate)
17 | QVQLVESGGGLVQAGGSLRLSCAASGITSGTYAMGWYRQAPGKERELVAAISSSGGRTYYADSVKGRFTISRDNAKNTVYLQMTSLKPEDTAVSYCAAETDTTYAFYWGQGTQVNVSS | high polyreactivity
18 | QVQLVESGGGLVQAGGSLRLSCAASGITSPYAMGWYRQAPGKERELVAAISWSGSSTYYADSVKGRFTISRDNAKYTVYLQMNSLNPEDTAVYYCATLVSASRSRRFGYEYWGQGSQVTVSS | high polyreactivity
19 | QVQLVESGGGLVQAGGSLRLSCAASGITSSIYAMGWDRQAPGKERELVAVSTTSGGSTYYADSVKGRYTISRDNAKNTVYLQMNSLKPEDTAVYYCAADSYFYLDLLEDYWGQGTKVTVSS | low polyreactivity
20 | QVQLVESGGGLVQAGGSLRLSCAASGITSSYAMGWYRQAPGKERELVAAISRGGSTYYADSVKGRFTISRDNAKNTVYLQMNSLKPEDTAVYYCNKRRYPYGWGQGTQVTVSS | high polyreactivity
21 | QVQLVESGGGLVQAGGSLRLSCAASGITSTYYAMGWYRQAPGKERELVAAISVSGGSTYYADSVKGRFTISRDNAKNTVYLQMNSLKPEDTAVYYCTADSYHTYYYWYDYWGQGTQVTVSS | low polyreactivity
22 | QVQLVESGGGLVQAGGSLRLSCAASGITVKLYPMGWYRQAPGKETELVATINRGSSTYYADSVKGRFTISRDNAKNTVYLLMNSLKPEDTAVYYCAARLIGAGLLIYDYWGQGTQVTVSS | high polyreactivity
23 | QVQLVESGGGLVQAGGSLRLSCAASGITVRLYAMGWYRQAPGKERELVATIDWSGDSTYYADSVKGRFTISRDNAKNTVYLQMHSLKPEDTAVYYCNAVYVPVGINLGEYDYWGQGTQVTVSS | low polyreactivity
24 | QVQLVESGGGLVQAGGSLRLSCAASGITYRGYAMGWYRQAPGKERELVAAISSGGSTSYADSLKGRFTISRDNAKNTVYLQMNSLKPEDTAVYYCAKDDERKQGQYPPYDSWGQGTQVTVSS | low polyreactivity
25 | QVQLVESGGGLVQAGGSLRLSCAASGITYRPYAMGWYRQTPGKERELVASISRGGSTYYADSVKGRFTISRDNAKNTVYLQMNSLKPEDTAVYYCAAYFAWRYDYWGQGTQVTVSS | high polyreactivity
26 | QVQLVESGGGLVQAGGSLRLSCAASGITYSYNAMGWSRQAPGKERELVAAISSNSDSTYFADSVMGRFTISRDNAKNTVYLQMNSLKPEDTAVYYCAADTPDAAVYSGFYYWGQGTQVTVSS | low polyreactivity
27 | QVQLVESGGGLVQAGGSLRLSCAASGIYAYVMGWYRQAPGTERELVAAISGTGGRTYYADSVKGRFTISRDNAKNTVYLQMNSLKPEDTAVYYCAARVKYTRYQSILDYYYWGQGTQVTVSS | high polyreactivity
28 | QVQLVESGGGLVQAGGSLRLSCAASGIYINAMGWYRQAPGKERELVAAISRGGSTYYADSVKGRFTISRDNAKNTVYLQMNSLKPEDTAVYYCAKLIGRWRLYHTFVKGDYWGQGTQVTVSS | high polyreactivity
29 | QVQLVESGGGLVQAGGSLRLSCAASGKPMGWYRQAPGKERELVAAITYGGTTTYYADSVKGRFTISRDNAKNTVYLQMNSQKPEDTAVYYCAADYVFVATPLRYDYWGQGTQVTVSS | low polyreactivity
30 | QVQLVESGGGLVQAGGSLRLSCAASGKTFVTYAMGWYRQAPGKERELVATISSSGGSTYYADSVKGRFTISRDNAKNTVYLQMNSLKPEDTAVYYCAKQAWAYALYTNFYSGDYGYWGQGTQVTVSS | low polyreactivity
31 | QVQLVESGGGLVQAGGSLRLSCAASGLFARNAMGWYRQAPGKERELVAAINRSGGSTYYADSVKGRFTISRDNAKNTVYLQMNSLKPEDTAVYYCNKAFTHTKYLSPIAYEYGYWGQGTQVTVSS | low polyreactivity
32 | QVQLVESGGGLVQAGGSLRLSCAASGLIFADYTMGWYRQAPGKERELVAVITDGDSTYYADSVKGRFTISRDNAKNTVYLQMNSLKPEDTAVYYCAAELDGSNYTLDYWGLGTQVTVSS | low polyreactivity
